Experimental data: patent publication US20070078092A1 (CUREGENICS, published 2007)
Square brackets hold non-standard residues; d marks the D form. Ends that are not written are not given here. * marks the point of attachment. Cholesteryloxycarbonyl = CC(C)CCC[C@@H](C)[C@H]1CC[C@H]2[C@@H]3CC=C4C[C@@H](OC(=O)*)CC[C@]4(C)[C@H]3CC[C@]12C; hLeu = CC(C)CC[C@H](N)C(=O)O; Orn = NCCC[C@H](N)C(=O)O; Nva = CCC[C@H](N)C(=O)O; Dap = NC[C@H](N)C(=O)O

Columns and labels:
[1] = molecular target: protein kinase A (PKA); experiment: cell-based or functional assay
[2] = molecular target: protein kinase B (PKB); experiment: cell-based or functional assay

Row | Binder | IC50, in vitro kinase assay PKA [1] [µM] | IC50, in vitro kinase assay PKB [2] [µM]
1 | Cholesteryloxycarbonyl-RPR[Orn]E(aminopropylmercaptoisoquinoline)SF-NH2 [PTR 6300] | 0.3 | 
2 | RQIKIWFQNRRMKWKKRPR[Nva]Y[Dap][hLeu]K(Cholesteryloxycarbonyl)-NH2 (N-terminus assumed; SMILES CCC[C@H](NC(=O)[C@H](CCCNC(=N)N)NC(=O)[C@@H]1CCCN1C(=O)[C@H](CCCNC(=N)N)NC(=O)[C@H](CCCCN)NC(=O)[C@H](CCCCN)NC(=O)[C@H](Cc1c[nH]c2ccccc12)NC(=O)[C@H](CCCCN)NC(=O)[C@H](CCSC)NC(=O)[C@H](CCCNC(=N)N)NC(=O)[C@H](CCCNC(=N)N)NC(=O)[C@H](CC(N)=O)NC(=O)[C@H](CCC(N)=O)NC(=O)[C@H](Cc1ccccc1)NC(=O)[C@H](Cc1c[nH]c2ccccc12)NC(=O)[C@@H](NC(=O)[C@H](CCCCN)NC(=O)[C@@H](NC(=O)[C@H](CCC(N)=O)NC(=O)[C@@H](N)CCCNC(=N)N)[C@@H](C)CC)[C@@H](C)CC)C(=O)N[C@@H](Cc1ccc(O)cc1)C(=O)N[C@@H](CN)C(=O)N[C@@H](CCC(C)C)C(=O)N[C@@H](CCCCNC(=O)O[C@H]1CC[C@@]2(C)C(=CC[C@H]3[C@@H]4CC[C@H]([C@H](C)CCCC(C)C)[C@@]4(C)CC[C@@H]32)C1)C(N)=O) [PTR 6316] | 5 | 0.1
